Experimental data: patent publication US20250215104A1 (WALDEN BIOSCIENCES, published 2025)

Tests used:
[1] = molecular target: T1, human soluble urokinase plasminogen activator receptor (hsuPAR) (human, UniProt Q03405 23-303, limits assumed); assay: off-rate screen of scFv clones (kdis), Octet BLI
T1 construct: also called human suPAR; rhuPAR-His

[2] = molecular target: T2, cynomolgus soluble urokinase plasminogen activator receptor (cynomolgus suPAR) (cynomolgus, UniProt Q9GK78 23-303, limits assumed); assay: off-rate screen of scFv clones (kdis), Octet BLI
T2 construct: also called cynomolgus uPAR; cynoPLAUR-His
T2 sequence (Q9GK78 23-303 limits assumed): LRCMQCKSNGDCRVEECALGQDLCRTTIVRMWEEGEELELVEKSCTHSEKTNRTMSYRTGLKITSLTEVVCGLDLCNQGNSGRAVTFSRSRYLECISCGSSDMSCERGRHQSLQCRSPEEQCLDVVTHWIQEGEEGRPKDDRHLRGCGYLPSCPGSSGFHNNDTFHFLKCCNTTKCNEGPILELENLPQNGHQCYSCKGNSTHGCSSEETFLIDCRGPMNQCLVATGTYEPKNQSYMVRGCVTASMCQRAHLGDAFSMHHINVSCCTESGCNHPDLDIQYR

T1 sequence (Q03405 23-303 limits assumed): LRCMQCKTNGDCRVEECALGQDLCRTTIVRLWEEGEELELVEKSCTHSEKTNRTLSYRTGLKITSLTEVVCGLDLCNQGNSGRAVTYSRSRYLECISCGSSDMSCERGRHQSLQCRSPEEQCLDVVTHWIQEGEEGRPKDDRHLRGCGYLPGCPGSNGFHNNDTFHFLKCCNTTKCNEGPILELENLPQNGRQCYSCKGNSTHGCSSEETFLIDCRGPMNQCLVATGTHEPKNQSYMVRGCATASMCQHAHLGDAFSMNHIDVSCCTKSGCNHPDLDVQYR

Row | Binder | koff [1] [s⁻¹] | koff [2] [s⁻¹]
1 | suPAR_DB04_E09 (scFv, V domains shown, scFv clone from phage display) VH: QVQLVQSGAEVKKPGASVKVSCKASGDTFTDYYIHWVRQAPGQGLEWMGWIDHENGSTSYDQKFQGRVTMTRDTSTSTVYMELSSLRSEDTAVYYCARGYDVDWFVYWGQGTLVTVSS VL: DIQMTQSPSSLSASVGDRVTITCRARQSVSYMYWYQQKPGKAPKLLIYRTSNLASGVPSRFSGSGSGTDFTLTISSLQPEDFATYYCQQYHSYPPTFGGGTKVEIK | 0.00598 | 0.000446
2 | suPAR_DB04_E10 (scFv, V domains shown, scFv clone from phage display) VH: QVQLVQSGAEVKKPGASVKVSCKASGYTFSSYYFHWVRQAPGQGLEWMGWIDPNTGDTIYAQKFQGRVTMTRDTSTSTVYMELSSLRSEDTAVYYCARGYDVDWFVYWGQGTLVTVSS VL: DIQMTQSPSSLSASVGDRVTITCSARSSVSYMYWYQQKPGKAPKLLIYRTSNLASGVPSRFSGSGSGTDFTLTISSLQPEDFATYYCQQYHSYPPTFGGGTKVEIK | 0.00116 | 0.000142
3 | suPAR_DB04_E11 (scFv, V domains shown, scFv clone from phage display) VH: QVQLVQSGAEVKKPGASVKVSCKASGYTFTNYYVHWVRQAPGQGLEWMGWIDHENGNTIYDQKFQGRVTMTRDTSTSTVYMELSSLRSEDTAVYYCARGYDVDWFVYWGQGTLVTVSS VL: DIQMTQSPSSLSASVGDRVTITCSARQSVSYMYWYQQKPGKAPKLLIYRTSNLASGVPSRFSGSGSGTDFTLTISSLQPEDFATYYCQQYHSYPPTFGGGTKVEIK | 0.00502 | 0.000158
4 | suPAR_DB04_E12 (scFv, V domains shown, scFv clone from phage display) VH: QVQLVQSGAEVKKPGASVKVSCKASGYTFTTYYMHWVRQAPGQGLEWMGWIDPENGSTIYDQKFQGRVTMTRDTSTSTVYMELSSLRSEDTAVYYCARGYDVDWFVYWGQGTLVTVSS VL: DIQMTQSPSSLSASVGDRVTITCSASQSVSYMYWYQQKPGKAPKLLIYRTSNLASGVPSRFSGSGSGTDFTLTISSLQPEDFATYYCQQYHSYPPTFGGGTKVEIK | 0.00336 | 8.15e-05
5 | suPAR_DB04_F01 (scFv, V domains shown, scFv clone from phage display) VH: QVQLVQSGAEVKKPGASVKVSCKASGYTFTSYYMHWVRQAPGQGLEWMGWIDHEGGNTIYAQKFQGRVTMTRDTSTSTVYMELSSLRSEDTAVYYCARGDDVDWFVYWGQGTLVTVSS VL: DIQMTQSPSSLSASVGDRVTITCSASQSVSYMYWYQQKPGKAPKLLIYRTSNLASGVPSRFSGSGSGTDFTLTISSLQPEDFATYYCQQYHSYPPTFGGGTKVEIK | 0.00267 | 4.88e-07
6 | suPAR_DB04_F03 (scFv, V domains shown, scFv clone from phage display) VH: QVQLVQSGAEVKKPGASVKVSCKASGYTIKDYYIHWVRQAPGQGLEWMGWIDPRSGDTNYGKNFQGRVTMTRDTSTSTVYMELSSLRSEDTAVYYCARGYDVDWFVYWGQGTLVTVSS VL: DIQMTQSPSSLSASVGDRVTITCSARSSVSYMYWYQQKPGKAPKLLIYRTSNLASGVPSRFSGSGSGTDFTLTISSLQPEDFATYYCQQYHSYPPTFGGGTKVEIK | 0.00375 | 0.000863
7 | suPAR_DB04_F04 (scFv, V domains shown, scFv clone from phage display) VH: QVQLVQSGAEVKKPGASVKVSCKASGYTFTSYYMHWVRQAPGQGLEWMGWIDHENGNTSYDQKFQGRVTMTRDTSTSTVYMELSSLRSEDTAVYYCARGYDVDWFVYWGQGTLVTVSS VL: DIQMTQSPSSLSASVGDRVTITCSARSSVSYMYWYQQKPGKAPKLLIYRTSNLASGVPSRFSGSGSGTDFTLTISSLQPEDFATYYCQQYHSYPPTFGGGTKVEIK | 0.00394 | 0.000174
8 | suPAR_DB04_F05 (scFv, V domains shown, scFv clone from phage display) VH: QVQLVQSGAEVKKPGASVKVSCKASGYTFSDYYVHWVRQAPGQGLEWMGWIDHEGGSTSYAQKFQGRVTMTRDTSTSTVYMELSSLRSEDTAVYYCARGYDVDWFVYWGQGTLVTVSS VL: DIQMTQSPSSLSASVGDRVTITCSARQSISYMYWYQQKPGKAPKLLIYRTSNLASGVPSRFSGSGSGTDFTLTISSLQPEDFATYYCQQYHSYPPTFGGGTKVEIK | 0.00405 | 0.000278
9 | suPAR_DB04_F06 (scFv, V domains shown, scFv clone from phage display) VH: QVQLVQSGAEVKKPGASVKVSCKASGYTFTGYYMHWVRQAPGQGLEWMGWIDHENGNTSYAQKFQGRVTMTRDTSTSTVYMELSSLRSEDTAVYYCARGYDVDWFVYWGQGTLVTVSS VL: DIQMTQSPSSLSASVGDRVTITCSARQSISYMYWYQQKPGKAPKLLIYRTSNLASGVPSRFSGSGSGTDFTLTISSLQPEDFATYYCQQYHSYPPTFGGGTKVEIK | 0.00279 | 0.000195
10 | suPAR_DB04_F07 (scFv, V domains shown, scFv clone from phage display) VH: QVQLVQSGAEVKKPGASVKVSCKASGYTFTGYYVHWVRQAPGQGLEWMGWIDHENGNTIYDQKFQGRVTMTRDTSTSTVYMELSSLRSEDTAVYYCARGYDVDWFVYWGQGTLVTVSS VL: DIQMTQSPSSLSASVGDRVTITCSARSSVSYMYWYQQKPGKAPKLLIYRTSNLASGVPSRFSGSGSGTDFTLTISSLQPEDFATYYCQQYHSYPPTFGGGTKVEIK | 0.00269 | 3.33e-05
11 | suPAR_DB04_F08 (scFv, V domains shown, scFv clone from phage display) VH: QVQLVQSGAEVKKPGASVKVSCKASGGTFTSYYMHWVRQAPGQGLEWMGWIDHSNGSTSYAQEFQGRVTMTRDTSTSTVYMELSSLRSEDTAVYYCARGYDVDWFVYWGQGTLVTVSS VL: DIQMTQSPSSLSASVGDRVTITCSARSSVSYMYWYQQKPGKAPKLLIYRTSNLASGVPSRFSGSGSGTDFTLTISSLQPEDFATYYCQQYHSYPPTFGGGTKVEIK | 0.00261 | 4.31e-05
12 | suPAR_DB04_F09 (scFv, V domains shown, scFv clone from phage display) VH: QVQLVQSGAEVKKPGASVKVSCKASGYTFTNYYFHWVRQAPGQGLEWMGWIDHENGNTSYDQKFQGRVTMTRDTSTSTVYMELSSLRSEDTAVYYCARGYDVDWFVYWGQGTLVTVSS VL: DIQMTQSPSSLSASVGDRVTITCSARSSVSYMYWYQQKPGKAPKLLIYRTSNLASGVPSRFSGSGSGTDFTLTISSLQPEDFATYYCQQYHSYPPTFGGGTKVEIK | 0.00462 | 0.000122
13 | suPAR_DB04_F10 (scFv, V domains shown, scFv clone from phage display) VH: QVQLVQSGAEVKKPGASVKVSCKASGYTFTDYYMHWVRQAPGQGLEWMGWIDHSGGNTIYAQKFQGRVTMTRDTSTSTVYMELSSLRSEDTAVYYCARGYDVDWFVYWGQGTLVTVSS VL: DIQMTQSPSSLSASVGDRVTITCSARSSVSYMYWYQQKPGKAPKLLIYRTSNLASGVPSRFSGSGSGTDFTLTISSLQPEDFATYYCQQYHSYPPTFGGGTKVEIK | 0.00412 | 0.000274
14 | suPAR_DB04_F11 (scFv, V domains shown, scFv clone from phage display) VH: QVQLVQSGAEVKKPGASVKVSCKASGYTFTSHYMHWVRQAPGQGLEWMGWIDHEGGNTSYAQKFQGRVTMTRDTSTSTVYMELSSLRSEDTAVYYCARGYDVDWFVYWGQGTLVTVSS VL: DIQMTQSPSSLSASVGDRVTITCSARSSVSYMYWYQQKPGKAPKLLIYRTSNLASGVPSRFSGSGSGTDFTLTISSLQPEDFATYYCQQYHSYPPTFGGGTKVEIK | 0.0051 | 0.000121
15 | suPAR_DB04_G02 (scFv, V domains shown, scFv clone from phage display) VH: QVQLVQSGAEVKKPGASVKVSCKASGYTFTNYYMHWVRQAPGQGLEWMGWIDHENGNTIYDQKFQGRVTMTRDTSTSTVYMELSSLRSEDTAVYYCARGYDVDWFVYWGQGTLVTVSS VL: DIQMTQSPSSLSASVGDRVTITCSARSSVSYMYWYQQKPGKAPKLLIYRTSSLASGVPSRFSGSGSGTDFTLTISSLQPEDFATYYCQQYHSYPPTFGGGTKVEIK | 0.00185 | 0.000388
16 | suPAR_DB04_G03 (scFv, V domains shown, scFv clone from phage display) VH: QVQLVQSGAEVKKPGASVKVSCKASGYTFTGYYMHWVRQAPGQGLEWMGWIDHENGNTIYDQKFQGRVTMTRDTSTSTVYMELSSLRSEDTAVYYCARGYDVDWFVYWGQGTLVTVSS VL: DIQMTQSPSSLSASVGDRVTITCSASSSVSYMYWYQQKPGKAPKLLIYRTSNLQSGVPSRFSGSGSGTDFTLTISSLQPEDFATYYCQQYHSYPPTFGGGTKVEIK | 0.00119 | 0.000747
17 | suPAR_DB04_G04 (scFv, V domains shown, scFv clone from phage display) VH: QVQLVQSGAEVKKPGASVKVSCKASGYSFTSYYIHWVRQAPGQGLEWMGWIDHENGSTIYAQKFQGRVTMTRDTSTSTVYMELSSLRSEDTAVYYCARGYDVDWFVYWGQGTLVTVSS VL: DIQMTQSPSSLSASVGDRVTITCSASQSVSYMYWYQQKPGKAPKLLIYRTSNLASGVPSRFSGSGSGTDFTLTISSLQPEDFATYYCQQYHSYPPTFGGGTKVEIK | 0.000751 | 0.000342
18 | suPAR_DB04_G05 (scFv, V domains shown, scFv clone from phage display) VH: QVQLVQSGAEVKKPGASVKVSCKASGYNITDYYIHWVRQAPGQGLEWMGWIDPENGSTIYDQKFQGRVTMTRDTSTSTVYMELSSLRSEDTAVYYCARGYDVDWFVYWGQGTLVTVSS VL: DIQMTQSPSSLSASVGDRVTITCSARSSVSYMYWYQQKPGKAPKLLIYRTSNLQSGVPSRFSGSGSGTDFTLTISSLQPEDFATYYCQQYHSYPPTFGGGTKVEIK | 0.00364 | 8.25e-05
19 | suPAR_DB04_G06 (scFv, V domains shown, scFv clone from phage display) VH: QVQLVQSGAEVKKPGASVKVSCKASGDTFTSYYVHWVRQAPGQGLEWMGWIDHENGNTIYDQKFQGRVTMTRDTSTSTVYMELSSLRSEDTAVYYCARGYDVDWFVYWGQGTLVTVSS VL: DIQMTQSPSSLSASVGDRVTITCSASQSVSYMYWYQQKPGKAPKLLIYRTSNLASGVPSRFSGSGSGTDFTLTISSLQPEDFATYYCQQYHSYPPTFGGGTKVEIK | 0.0027 | 0.000208
20 | suPAR_DB04_G07 (scFv, V domains shown, scFv clone from phage display) VH: QVQLVQSGAEVKKPGASVKVSCKASGFSFTTYYMHWVRQAPGQGLEWMGWIDPENGNTIYAQKFQGRVTMTRDTSTSTVYMELSSLRSEDTAVYYCARGYDVDWFVYWGQGTLVTVSS VL: DIQMTQSPSSLSASVGDRVTITCSARSSVSYMYWYQQKPGKAPKLLIYRTSNLASGVPSRFSGSGSGTDFTLTISSLQPEDFATYYCQQYHSYPPTFGGGTKVEIK | 0.00424 | 5.96e-07
21 | suPAR_DB04_G08 (scFv, V domains shown, scFv clone from phage display) VH: QVQLVQSGAEVKKPGASVKVSCKASGHTLTGYYVHWVRQAPGQGLEWMGWIDHENGNTIYDQKFQGRVTMTRDTSTSTVYMELSSLRSEDTAVYYCARGYDVDWFVYWGQGTLVTVSS VL: DIQMTQSPSSLSASVGDRVTITCSARSSVSYMYWYQQKPGKAPKLLIYRTSNLASGVPSRFSGSGSGTDFTLTISSLQPEDFATYYCQQYHSYPPTFGGGTKVEIK | 0.00317 | 0.000203
